The chains are these.
B1: Azoarcus group I ribozyme (parent)
chain: GUGCCUUGCGCCGGGAAACCACGCAAGGGAUGGUGUCAAAUUCGGCGAAACCUAAGCGCCCGCCCGGGCGUAUGGCAACGCCGAGCCAAGCUUCGGCGCCUGCGCCGAUGAAGGUGUAGAGACUAGACGGCACCCACCUAAGGCAAACGCUAUGGUGAAGGCAUAGUCCAGGGAGUGGCGAAAGUCACACAAACCGG

The series covers variants of B1. In words: reverse-splicing fitness (ratio to wild type); higher = more active; in vitro selection; Mg2+ level not given. In a few lines: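 An in vitro group I ribozyme library with randomized positions was T7-transcribed and gel-purified. In triplicate, 10 pmol RNA in EPPS pH 7.5 was reacted with 50 pmoles of a 30-nt RNA substrate for 1 h at 37 °C across several added MgCl2 levels (1–48 mM), then stopped with EDTA. Products were reverse transcribed from a substrate-complementary primer, PCR-amplified and sequenced (HiSeq 4000). Fitness is a variant's read proportion after selection over that before, normalised to wild type.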
C82G A111G A120U C169G U176A: the reverse-splicing fitness was 0.00289.

As to C82G A111G A120U C169G U176G, the reverse-splicing fitness stood at 0.00169.

For C82G A111G A120U C169G U176C, the reverse-splicing fitness was 0.00434.

As for C82G A111G A120U A145U C150U C169A U176A, the reverse-splicing fitness was 0.00294.

Take C82G A111G A120U A145U C150U C169A U176G: the reverse-splicing fitness amounted to 0.00186.

On to C82G A111G A120U A145U C150U C169A U176C, for which the reverse-splicing fitness worked out at 0.00239.

As to C82G A111G A120U A145U C150U C169U U176A, the reverse-splicing fitness was found to be 0.00291.

Turning to C82G A111G A120U A145U C150U C169U U176G, the reverse-splicing fitness was found to be 0.00196.

C82G A111G A120U A145U C150U C169U U176C: the reverse-splicing fitness is 0.00263.

On to C82G A111G A120U C150G U176C, for which the reverse-splicing fitness amounted to 0.00821.

Take C82G A111G A120U C150G U176A: the reverse-splicing fitness amounted to 0.00529.

For the variant C82G A111G A120U C150G U176G, the reverse-splicing fitness amounted to 0.00299.

As to C82G A111G A120U C150G C169A U176A, the reverse-splicing fitness was 0.00788.

In the case of C82G A111G A120U C150G C169A U176G, the reverse-splicing fitness was 0.00267.

C82G A111G A120U C150G C169A U176C: the reverse-splicing fitness came to 0.00831.

Regarding C82G A111G A120U A145U C150G, the reverse-splicing fitness was found to be 0.00894.

C82G A111G A120U A145U C150A: the reverse-splicing fitness was 0.00764.

Turning to C82G A111G A120U A145U C150U, the reverse-splicing fitness amounted to 0.04.

For C82G A111G A120U C169A U176G, the reverse-splicing fitness is 0.00169.

In the case of C82G A111G A120U C169A U176C, the reverse-splicing fitness was 0.00309.

In the case of C82G A111G A120U C169A U176A, the reverse-splicing fitness was determined as 0.00371.

Take C82G A111G A145C C150G C169G U176A: the reverse-splicing fitness was 0.0101.

On to C82G A111G A145C C150G C169G U176G, for which the reverse-splicing fitness amounted to 0.0057.

On to C82G A111G A145C C150G C169G U176C, for which the reverse-splicing fitness is 0.00856.

In the case of C82G A111G A120U C150U C169G, the reverse-splicing fitness turned out to be 0.00538.

With C82G A111G A120U C150U C169A, the reverse-splicing fitness was 0.00504.

C82G A111G A120U C150U C169U: the reverse-splicing fitness worked out at 0.00493.

Regarding C82G A111G A145C C150A C169U U176A, the reverse-splicing fitness worked out at 0.0123.

For the variant C82G A111G A145C C150A C169U U176G, the reverse-splicing fitness was determined as 0.00582.

With C82G A111G A145C C150A C169U U176C, the reverse-splicing fitness was determined as 0.00961.

With C82G A111G A145C C150G C169A U176G, the reverse-splicing fitness is 0.00615.

Take C82G A111G A145C C150G C169A U176C: the reverse-splicing fitness came to 0.0105.

Regarding C82G A111G A145C C150G C169A U176A, the reverse-splicing fitness was determined as 0.00983.

For C82G A111G A120U C150A C169A U176A, the reverse-splicing fitness is 0.00549.

With C82G A111G A120U C150A C169A U176G, the reverse-splicing fitness is 0.00223.

As to C82G A111G A120U C150A C169A U176C, the reverse-splicing fitness was 0.00424.

Regarding C82G A111G A145C C150U C169A U176A, the reverse-splicing fitness came to 0.0123.

As to C82G A111G A145C C150U C169A U176C, the reverse-splicing fitness worked out at 0.00686.

Take C82G A111G A120U C150G C169U: the reverse-splicing fitness came to 0.0064.

Turning to C82G A111G A120U C150G C169A, the reverse-splicing fitness amounted to 0.00761.

C82G A111G A120U C150G C169G: the reverse-splicing fitness came out at 0.00678.

In the case of C82G A111G A120U C150U C169G U176G, the reverse-splicing fitness amounted to 0.0024.

As to C82G A111G A120U C150U C169G U176A, the reverse-splicing fitness is 0.00758.

Take C82G A111G A120U C150U C169G U176C: the reverse-splicing fitness was determined as 0.00412.

On to C82G A111G A145C C150G C169A, for which the reverse-splicing fitness worked out at 0.00828.

Take C82G A111G A145C C150G C169G: the reverse-splicing fitness was determined as 0.00758.

With C82G A111G A145C C150G C169U, the reverse-splicing fitness stood at 0.00923.

In the case of C82G A111G A120U C150A C169G U176G, the reverse-splicing fitness came to 0.00187.

For C82G A111G A120U C150A C169G U176A, the reverse-splicing fitness worked out at 0.00749.

As to C82G A111G A120U C150A C169G U176C, the reverse-splicing fitness stood at 0.00399.

Regarding C82G A111G A145C C150A C169G U176C, the reverse-splicing fitness came out at 0.0122.

Consider C82G A111G A145C C150A C169G U176G, for which the reverse-splicing fitness was determined as 0.00577.

Turning to C82G A111G A145C C150A C169G U176A, the reverse-splicing fitness was 0.0228.

C82G A111G A145C C150A U176G: the reverse-splicing fitness was 0.00955.

Take C82G A111G A145C C150A U176A: the reverse-splicing fitness stood at 0.0205.

On to C82G A111G A145C C150A U176C, for which the reverse-splicing fitness was 0.0173.

Take C82G A111G A120U C150A C169A: the reverse-splicing fitness worked out at 0.00558.

With C82G A111G A120U C150A C169G, the reverse-splicing fitness turned out to be 0.00433.

On to C82G A111G A120U C150A C169U, for which the reverse-splicing fitness turned out to be 0.00399.

Take C82G A111G A145C C150G C169U U176C: the reverse-splicing fitness came to 0.013.

Consider C82G A111G A145C C150G C169U U176A, for which the reverse-splicing fitness was determined as 0.00922.

C82G A111G A145C C150G C169U U176G: the reverse-splicing fitness turned out to be 0.00582.

On to C82G A111G A120U C150G C169U U176A, for which the reverse-splicing fitness came to 0.00421.

Consider C82G A111G A120U C150G C169U U176G, for which the reverse-splicing fitness was found to be 0.00278.

As for C82G A111G A120U C150G C169U U176C, the reverse-splicing fitness is 0.00723.

As for C82G A111G A120U C150U U176G, the reverse-splicing fitness was determined as 0.00497.

For the variant C82G A111G A120U C150U U176A, the reverse-splicing fitness is 0.0115.

C82G A111G A120U C150U U176C: the reverse-splicing fitness worked out at 0.0164.

On to C82G A111G A145C C150A C169A, for which the reverse-splicing fitness is 0.00763.

For C82G A111G A145C C150A C169U, the reverse-splicing fitness turned out to be 0.0097.

Regarding C82G A111G A145C C150A C169G, the reverse-splicing fitness was determined as 0.00798.

For the variant C82G A111G A120U A145G U176C, the reverse-splicing fitness stood at 0.0283.

In the case of C82G A111G A120U A145G U176A, the reverse-splicing fitness turned out to be 0.0143.

With C82G A111G A120U A145G U176G, the reverse-splicing fitness was 0.00435.

As to C82G A111G A120U C150G C169G U176C, the reverse-splicing fitness is 0.00486.

On to C82G A111G A120U C150G C169G U176G, for which the reverse-splicing fitness was determined as 0.00263.

Consider C82G A111G A120U C150G C169G U176A, for which the reverse-splicing fitness was 0.00638.

For the variant C82G A111G A145C C150A C169A U176C, the reverse-splicing fitness turned out to be 0.00683.

For the variant C82G A111G A145C C150A C169A U176G, the reverse-splicing fitness amounted to 0.00663.

Take C82G A111G A145C C150A C169A U176A: the reverse-splicing fitness is 0.0136.

For the variant C82G A111G A145C, the reverse-splicing fitness came out at 0.392.

For C82G A111G A120U A145U C150G C169A, the reverse-splicing fitness came out at 0.00331.

For the variant C82G A111G A120U A145U C150G C169U, the reverse-splicing fitness came out at 0.00254.

For the origin of these results see the RNAGym collection of RNA variant scans (doi:10.1093/molbev/msab373).
